Target: pstp_myctu pstP (UniProt P9WHW5)

Substance: ECF RNA polymerase sigma factor SigH (Mycobacterium tuberculosis (strain ATCC 25618 / H37Rv)), P9WGH9 T26A;T106A
- effect of a mutation on the interaction: disrupting interaction

Source: IntAct's records for PubMed 18728196
